Data on 9 sequences can be found in the DeepSol protein solubility set.

A short description of the series: soluble on expression in E. coli; label from the status in PepcDB or PDB records.
As for “VVELPKTDEGLGFNIMGGKEQNSPIYISRVIPGGVADRHGGLKRGDQLLSVNGVSVEGEQHEKAVELLKAAQGSVKLVVR”, the “soluble on expression in E. coli” value is recorded as “soluble”.

Consider “VVIFFGVILGILIVEYGQKRSFSSWLVEKMFAYRKYKLSKKVDNYKGVETQRNRNIPYHLDNPEEIVGFSTQEYDVNGMQVFIINDQKQSHQPVIYYLYGSVYLRRPEKLHFKTVKHLIQLTNAKVVFPNFPKVPYATYQDVYPKLVEAYQQFCLSNGPSQVSVIGDSSGGGMALAFAKYIRDTKTAPQPKQLILISPWLDVSFKNQAYKDFEAEEAYLDARRLRDIGELWAGGQGNMQLPYVSPLYGDYEDLPEITTFVGTKEIFYPDIMSLHDQLTRQRIANQLIIAEKMIHAYVIFPIREAKQARKQIAELVLKTVEHT”, for which the “soluble on expression in E. coli” value is “not soluble”.

Take “WLRPAFAGKTRLDALDEAAFEQAVKSLLSWTQHALIDRHVPAHIIVPSGMGRHIDYGLADDGTPQPPVLSVKLQELFGLPDTPRIAKNRIPLTLHLLSPGGRPLQVTQDLKSFWTNTYPEVKKEMKGRYPKHPWPDDPWTATATHRTKSPGK”: the “soluble on expression in E. coli” value is “not soluble”.

For the sequence “YDNLAHNLAVERGLTAGVLGSQGKTEIVQKLTQQRKKVDDAVNSLVQLNTPLISSSDSYDLLQDVQVQLNRLNQVRQGVDRLSPQIAPFGYYSNLNQLIIDNIDILIAQTQSRELGTLGDALISVIVMKERAGQARGALNGVFAKGSATSVLFSNIEGYIQSGDYASRKAQIAFPEQYRQSLQSHQSNPAWKKVEQVQQSFLNQSANLDNIQGPQATEWFPMATERIGLMNQLRNQMVDQMLSAA”, the “soluble on expression in E. coli” value is listed as “not soluble”.

On to “YKEEDSTVSILPTSLPQIHRANMLAQGSPAASKISPLVTKKSKTRWHFGIRSRSYPLDVMGEIYIALKNLGAEWAKPSEEDLWTIKLRWKYDIGNKTNTNEKIPDLMKMVIQLFQIETNNYLVDFKFDGWESSYGDDTTVSNISEDEMSTFSAYPFLHLTTKLIMELAVNS”, for which the “soluble on expression in E. coli” value is recorded as “soluble”.

Consider “YKIEKEQRLGLIPQREGNYEKNKNVLESATVKINYYSSKATSGQAGAAASAAFAKNNNTSDNTQQNQTSSVEAKSVNVTKHSFVQALKKVGFSGSNPLHFNMKLGNSSLSANGVDYYNAVKQALTELG”, for which the “soluble on expression in E. coli” value is given as “not soluble”.

As to “YPNASPLLGSSWGGLIHLYTATARNSYHLQIHKNGHVDGAPHQTIYSALMIRSEDAGFVVITGVMSRRYLCMDFRGNIFGSHYFDPENCRFQHQTLENGYDVYHSPQYHFLVSLGRAKRAFLPGMNPPPYSQFLSRRNEIPLIHFNTPIPRRHTR”, the “soluble on expression in E. coli” value is recorded as “soluble”.

“YRENDPRLQLAFKLFLDGCTDKEVEQQTGINRRTFRRYRMKYGITNSLRHKND”: the “soluble on expression in E. coli” value is “not soluble”.

For “YSVTVKWGKEKFEGVELNTDEPPMVFKAQLFALTGVQPARQKVMVKGGTLKDDDWGNIKMKNGMTVLMMGSADALPEEPSAKT”, the “soluble on expression in E. coli” value is given as “soluble”.
